These results are taken from patent publication US20120277144A1 (published 2012).

The assay concerns the target Rac1 (human, UniProt P63000 1-189). Put plainly: co-immunoprecipitation with anti-FGD5 antibody from lysates of FGD5 overexpressing HUVECs, western blot. The protocol: GTP-RhoA, Rac1, and cdc42 activation levels were measured using the G-lisa detection system (Tebu-Bio, The Netherlands). For FGD5-protein complex co-immunoprecipitation, magnetic beads (Dynabeads, Invitrogen, The Netherlands) were coated and cross-linked with 2.5 μg anti-FGD5 antibody (Bioscience, The Netherlands) before immunoprecipitation overnight at 4° C. with protein cell lysates of transfected HUVECs (50 μg total protein of a volume of 100 μl incubation buffer). Beads were washed and the protein samples were eluted with eluation buffer (Invitrogen, The Netherlands) before analysis by western blot.
On the technique in general: Immunoblotting shows a protein as a band on a membrane.

B1: FYVE, RhoGEF and PH domain-containing 5 (FGD5) (enzyme)
chain: MFRGPKPPIAPKPRLTAPNEWRASVYLNDSLNKCSNGRLPCVDRGLDEGPRSIPKCSESETDEDYIVVPRVPLREDEPKDEGSVGNKALVSPESSAEEEEEREEGGEACGLEGTGAGEDSVAPAAPGAGALSREGEEGTDLALEDEGEGCADEPGTLEQVSRSEEEEKLVQPHRECSLEDSGPWAGEGVFQSDLLLPHIHGEDQEPPDTPGEAEEDDEEGCASTDPAGADEGSGPDRPTEDMGQDAEDTSEEPPEKEELAGVQEAETATDCPEVLEEGCEEATGVTGGEQVDLSEPPDHEKKTNQEVAAATLEDHAQDESAEESCQIVPFENDCMEDFVTSLTGSPYEFFPTESTSFCSESCSPLSESAKGLESEQAPKLGLRAEENPMVGALCGQCGSLQGGAAEGPAAPDVVVVLEEEALDDALANPYVMGVGLPGQAAPGEGGQAASDALGGYGSKEELNCEAEGGLVPADRKNTSTRVRPHSGKVAGYVPETVPEETGPEAGSSAPGIGGAAEEVGKTLLSLEGKPLEASRALPAKPRAFTLYPRSFSVEGREIPVSVYQEPEGSGLDDHRIKRKEDNLSLSCVIGSSGSFSQRNHLPSSGTSTPSSMVDIPPPFDLACITKKPITKSSPSLLIESDSPDKYKKKKSSFKRFLALTFKKKTENKLHVDVNVSSSRSSSESSYHGPSRILEVDRRSLSNSPQLKSRTGKLRASESPSSLIFYRDGKRKGVPFSRTVSRVESFEDRSRPPFLPLPLTKPRSISFPSADTSDYENIPAMNSDYENIQIPPRRPARAGAFTKLFEDQSRALSTANENDGYVDMSSFNAFESKQQSADQDAESAYTEPYKVCPISSAAPKEDLTSDEEQRSSEEEDSASRDPSVTHKVEGQSRALVIAQELLSSEKAYVEMLQHLNLDFHGAVMRALDDMDHEGRDTLAREELRQGLSELPAIHDLHQGILEELEERLSNWESQQKVADVFLAREQGFDHHATHILQFDRYLGLLSENCLHSPRLAAAVREFEQSVQGGSQTAKHRLLRVVQRLFQYQVLLTDYLNNLCPDSAEYDNTQGALSLISKVTDRANDSMEQGENLQKLVHIEHSVRGQGDLLQPGREFLKEGTLMKVTGKNRRPRHLFLMNDVLLYTYPQKDGKYRLKNTLAVANMKVSRPVMEKVPYALKIETSESCLMLSASSCAERDEWYGCLSRALPEDYKAQALAAFHHSVEIRERLGVSLGERPPTLVPVTHVMMCMNCGCDFSLTLRRHHCHACGKIVCRNCSRNKYPLKYLKDRMAKVCDGCFGELKKRGRAVPGLMRERPVSMSFPLSSPRFSGSAFSSVFQSINPSTFKKQKKVPSALTEVAASGEGSAISGYLSRCKRGKRHWKKLWFVIKGKVLYTYMASEDKVALESMPLLGFTIAPEKEEGSSEVGPIFHLYHKKTLFYSFKAEDTNSAQRWIEAMEDASVL
notes: Guanine-nucleotide exchange factor; The co-IP used lysates of HUVECs transfected with adenovirus encoding human FGD5 cDNA; also called Ad-FGD5 transgene product
As for B1, the binding result is “no binding”.
